Assay results reported in the Immune Epitope Database (IEDB).
One block for each sequence: values may come before it.

Key:
HLA-A*11:01 = test: IEDB peptide-MHC binding, purified MHC/direct/fluorescence; filed as Kd, often an IC50 or EC50 that approximates it; ≥ and ≤ were set here for values at or beyond the usual limits of such assays
HLA-B*57:01 = test: as above
HLA-B*46:01 = test: as above
HLA-A*02:01 [1] = test: as above
HLA-A*01:01 = test: as above
HLA-B*40:01 = test: as above
HLA-B*27:05 = test: as above
HLA-B*58:01 = test: as above
HLA-A*31:01 [2] = test: as above
HLA-B*44:02 = test: as above
HLA-B*15:01 [3] = test: as above
HLA-A*03:01 [4] = test: as above
HLA-B*48:01 = test: as above
HLA-B*15:09 = test: as above
HLA-A*29:02 [5] = test: as above; conditions: source organism: West Nile virus
HLA-B*18:01 = test: as above; conditions: source organism: West Nile virus
HLA-B*39:01 = test: as above
HLA-A*69:01 [6] = test: as above
HLA-B*07:02 = test: as above
HLA-A*31:01 [7] = test: IEDB peptide-MHC binding, purified MHC/competitive/fluorescence; filed as Kd, often an IC50 or EC50 that approximates it; ≥ and ≤ were set here for values at or beyond the usual limits of such assays
HLA-A*26:01 = test: IEDB peptide-MHC binding, purified MHC/direct/fluorescence; filed as Kd, often an IC50 or EC50 that approximates it; ≥ and ≤ were set here for values at or beyond the usual limits of such assays
HLA-B*35:01 = test: as above
HLA-B*08:01 = test: as above
HLA-B*15:17 = test: as above; conditions: source organism: Giardia lamblia ATCC 50803
HLA-A*29:02 [8] = test: IEDB peptide-MHC binding, purified MHC/competitive/fluorescence; filed as Kd, often an IC50 or EC50 that approximates it; ≥ and ≤ were set here for values at or beyond the usual limits of such assays; conditions: source organism: Cryptosporidium parvum Iowa II
HLA-A*03:01 [9] = test: as above; conditions: source organism: Influenza A virus (A/nt/60/1968(H3N2))
HLA-A*24:03 = test: IEDB peptide-MHC binding, purified MHC/direct/fluorescence; filed as Kd, often an IC50 or EC50 that approximates it; ≥ and ≤ were set here for values at or beyond the usual limits of such assays; conditions: source organism: Pasteurella multocida
HLA-C*05:01 = test: as above; conditions: source organism: Vaccinia virus Copenhagen
HLA-A*02:01 [10] = test: IEDB peptide-MHC binding, purified MHC/competitive/fluorescence; filed as Kd, often an IC50 or EC50 that approximates it; ≥ and ≤ were set here for values at or beyond the usual limits of such assays; conditions: source organism: Vaccinia virus Copenhagen
HLA-B*15:01 [11] = test: as above; conditions: source organism: Vaccinia virus Copenhagen
HLA-A*69:01 [12] = test: as above; conditions: source organism: Vaccinia virus Copenhagen
[13] = source organism: West Nile virus
[14] = source organism: Francisella tularensis subsp. holarctica LVS
[15] = source organism: Vibrio cholerae
[16] = source organism: Vibrio parahaemolyticus
[17] = source organism: Mycobacterium tuberculosis
[18] = source organism: Giardia lamblia ATCC 50803
[19] = source organism: Listeria monocytogenes
[20] = source organism: Camelpox virus M-96
[21] = source organism: Campylobacter jejuni
[22] = source organism: Pasteurella multocida

Sequence: AHYEEDVNL
Kd (HLA-A*11:01; [13]): ≥ 20 µM
Kd (HLA-B*57:01; [13]): ≥ 20 µM
Kd (HLA-B*46:01; [13]): ≥ 20 µM
Kd (HLA-A*02:01 [1]; [13]): ≥ 20 µM
Kd (HLA-A*01:01; [13]): ≥ 20 µM
Kd (HLA-B*40:01; [13]): ≥ 20 µM
Kd (HLA-B*27:05; [13]): ≥ 20 µM
Kd (HLA-B*58:01; [13]): ≥ 20 µM
Kd (HLA-A*31:01 [2]; [13]): ≥ 20 µM
Kd (HLA-B*44:02; [13]): ≥ 20 µM
Kd (HLA-B*15:01 [3]; [13]): ≥ 20 µM
Kd (HLA-A*03:01 [4]; [13]): ≥ 20 µM
Kd (HLA-B*48:01; [13]): ≥ 20 µM
Kd (HLA-B*15:09; [13]): 1.8 µM
Kd (HLA-A*29:02 [5]): ≥ 20 µM
Kd (HLA-B*18:01): ≥ 20 µM
Kd (HLA-B*39:01; [13]): 1.71 µM
Kd (HLA-A*69:01 [6]; [13]): ≥ 20 µM
Kd (HLA-B*07:02; [13]): ≥ 20 µM

Sequence: AIYESNIGY
Kd (HLA-A*11:01; [14]): 0.0151 µM
Kd (HLA-A*03:01 [4]; [14]): 0.0083 µM
Kd (HLA-A*31:01 [7]; source organism: Francisella tularensis subsp. tularensis FSC198): ≥ 20 µM

Sequence: EGIEGRIAY
Kd (HLA-A*11:01; [15]): ≥ 20 µM
Kd (HLA-A*02:01 [1]; [15]): ≥ 20 µM
Kd (HLA-A*01:01; [15]): ≥ 20 µM
Kd (HLA-B*40:01; [15]): ≥ 20 µM
Kd (HLA-B*27:05; [15]): ≥ 20 µM
Kd (HLA-B*58:01; [15]): ≥ 20 µM
Kd (HLA-A*31:01 [2]; [15]): ≥ 20 µM
Kd (HLA-B*44:02; [15]): ≥ 20 µM
Kd (HLA-B*15:01 [3]; [15]): 0.306 µM
Kd (HLA-A*03:01 [4]; [15]): ≥ 20 µM
Kd (HLA-A*26:01; [15]): 0.00861 µM
Kd (HLA-B*35:01; [15]): 0.0159 µM
Kd (HLA-B*08:01; [15]): ≥ 20 µM
Kd (HLA-A*69:01 [6]; [15]): ≥ 20 µM
Kd (HLA-B*07:02; [15]): ≥ 20 µM

Sequence: EVDEGSDMM
Kd (HLA-A*11:01; [16]): ≥ 20 µM
Kd (HLA-A*02:01 [1]; [16]): ≥ 20 µM
Kd (HLA-A*01:01; [16]): 4.3 µM
Kd (HLA-B*40:01; [16]): ≥ 20 µM
Kd (HLA-B*27:05; [16]): ≥ 20 µM
Kd (HLA-B*58:01; [16]): ≥ 20 µM
Kd (HLA-A*31:01 [2]; [16]): ≥ 20 µM
Kd (HLA-B*44:02; [16]): ≥ 20 µM
Kd (HLA-B*15:01 [3]; [16]): ≥ 20 µM
Kd (HLA-A*03:01 [4]; [16]): ≥ 20 µM
Kd (HLA-A*26:01; [16]): 4.43 µM
Kd (HLA-B*35:01; [16]): 0.254 µM
Kd (HLA-B*08:01; [16]): ≥ 20 µM
Kd (HLA-A*69:01 [6]; [16]): 0.141 µM
Kd (HLA-B*07:02; [16]): ≥ 20 µM

Sequence: GTAPPPLTR
Kd (HLA-A*11:01; [17]): 0.0204 µM
Kd (HLA-A*03:01 [4]; [17]): 0.32 µM
Kd (HLA-A*31:01 [7]; source organism: Mycobacterium tuberculosis variant bovis BCG str. Pasteur 1173P2): 0.00377 µM

Sequence: HSSVAGGLW
Kd (HLA-A*11:01; [18]): ≥ 20 µM
Kd (HLA-B*57:01; [18]): 0.0535 µM
Kd (HLA-A*02:01 [1]; [18]): ≥ 20 µM
Kd (HLA-A*01:01; [18]): 0.59 µM
Kd (HLA-B*40:01; [18]): ≥ 20 µM
Kd (HLA-B*27:05; [18]): ≥ 20 µM
Kd (HLA-B*58:01; [18]): 0.00374 µM
Kd (HLA-A*31:01 [2]; [18]): ≥ 20 µM
Kd (HLA-B*44:02; [18]): ≥ 20 µM
Kd (HLA-B*15:01 [3]; [18]): ≥ 20 µM
Kd (HLA-A*03:01 [4]; [18]): ≥ 20 µM
Kd (HLA-A*26:01; [18]): ≥ 20 µM
Kd (HLA-B*35:01; [18]): 0.278 µM
Kd (HLA-B*15:17): 0.0011 µM
Kd (HLA-B*08:01; [18]): ≥ 20 µM
Kd (HLA-A*69:01 [6]; [18]): ≥ 20 µM
Kd (HLA-B*07:02; [18]): ≥ 20 µM

Sequence: LLARFGLEK
Kd (HLA-A*11:01; [19]): 0.0103 µM
Kd (HLA-A*03:01 [4]; [19]): 0.0141 µM
Kd (HLA-A*31:01 [7]; source organism: Listeria monocytogenes J0161): 1.4 µM

Sequence: MMGIILSKY
Kd (HLA-A*29:02 [8]): 0.052 µM

Sequence: MVGVGSLVK
Kd (HLA-A*11:01; [13]): 0.027 µM
Kd (HLA-A*31:01 [7]; [13]): ≥ 20 µM

Sequence: SQEDNHFSL
Kd (HLA-A*11:01; [20]): ≥ 20 µM
Kd (HLA-A*02:01 [1]; [20]): ≥ 20 µM
Kd (HLA-A*01:01; [20]): ≥ 20 µM
Kd (HLA-B*40:01; source organism: Variola virus): 0.141 µM
Kd (HLA-B*27:05; [20]): ≥ 20 µM
Kd (HLA-B*58:01; [20]): ≥ 20 µM
Kd (HLA-A*31:01 [2]; [20]): ≥ 20 µM
Kd (HLA-B*44:02; [20]): ≥ 20 µM
Kd (HLA-B*15:01 [3]; source organism: Variola virus): 2.79 µM
Kd (HLA-A*03:01 [4]; [20]): ≥ 20 µM
Kd (HLA-A*26:01; [20]): ≥ 20 µM
Kd (HLA-B*35:01; source organism: Variola virus): 1.56 µM
Kd (HLA-B*08:01; [20]): ≥ 20 µM
Kd (HLA-A*69:01 [6]; [20]): ≥ 20 µM
Kd (HLA-B*07:02; [20]): ≥ 20 µM

Sequence: TIHDRIPHR
Kd (HLA-A*31:01 [7]; source organism: Influenza A virus (A/nt/60/1968(H3N2))): 0.0204 µM
Kd (HLA-A*03:01 [9]): 0.0619 µM

Sequence: TLYYLECKR
Kd (HLA-A*03:01 [4]; [21]): ≥ 20 µM
Kd (HLA-A*31:01 [7]; [21]): 0.0545 µM

Sequence: TVHDRTPYR
Kd (HLA-A*03:01 [4]; source organism: Influenza A virus (A/SW/MN/3128/00(H1N2))): ≥ 20 µM
Kd (HLA-A*31:01 [7]; source organism: Influenza A virus (A/Waikato/7/2000(H3N2))): ≥ 20 µM

Kd (HLA-A*11:01; [22]): 3.03 µM
Kd (HLA-A*02:01 [1]; [22]): 0.00619 µM
Kd (HLA-A*01:01; [22]): ≥ 20 µM
Kd (HLA-B*40:01; [22]): ≥ 20 µM
Kd (HLA-B*27:05; [22]): ≥ 20 µM
Kd (HLA-B*58:01; [22]): ≥ 20 µM
Kd (HLA-A*31:01 [2]; [22]): ≥ 20 µM
Kd (HLA-B*15:01 [3]; [22]): 0.267 µM
Kd (HLA-A*03:01 [4]; [22]): ≥ 20 µM
Kd (HLA-A*26:01; [22]): ≥ 20 µM
Kd (HLA-B*35:01; [22]): 0.297 µM
Kd (HLA-A*24:03): ≥ 20 µM
Kd (HLA-B*08:01; [22]): ≥ 20 µM
Kd (HLA-A*69:01 [6]; [22]): 0.599 µM
Kd (HLA-B*07:02; [22]): 11.3 µM
Sequence: VMLDWGIEL

Sequence: YTDLTYQSF
Kd (HLA-A*11:01; source organism: Cowpox virus): ≥ 20 µM
Kd (HLA-B*57:01; source organism: Cowpox virus): 3.76 µM
Kd (HLA-B*46:01; source organism: Cowpox virus): ≥ 20 µM
Kd (HLA-A*01:01; source organism: Cowpox virus): 0.019 µM
Kd (HLA-B*40:01; source organism: Cowpox virus): ≥ 20 µM
Kd (HLA-B*27:05; source organism: Cowpox virus): ≥ 20 µM
Kd (HLA-B*58:01; source organism: Variola virus): 0.083 µM
Kd (HLA-A*31:01 [2]; source organism: Cowpox virus): ≥ 20 µM
Kd (HLA-A*03:01 [4]; source organism: Cowpox virus): ≥ 20 µM
Kd (HLA-B*48:01; source organism: Cowpox virus): ≥ 20 µM
Kd (HLA-A*26:01; source organism: Variola virus): 0.233 µM
Kd (HLA-B*15:09; source organism: Variola virus): ≥ 20 µM
Kd (HLA-C*05:01): ≤ 0.001 µM
Kd (HLA-B*39:01; source organism: Variola virus): ≥ 20 µM
Kd (HLA-B*08:01; source organism: Variola virus): ≥ 20 µM
Kd (HLA-A*02:01 [10]): ≥ 20 µM
Kd (HLA-B*15:01 [11]): 2.64 µM
Kd (HLA-A*69:01 [12]): ≥ 20 µM
